Measurements as given in patent US11414460B2, “KRAS-specific capture agents, compositions, and methods of making and using” (Institute for Systems Biology, priority 2019, dated 2022).
Positions of bridges follow the written chain, without caps; N, C: chain ends. Non-standard residues stand in square brackets, D forms with d. Residues, ends and D or L forms follow the SMILES beside them. Triazole bridges read from a SMILES are 1,4-linked. No end group written: not given here. ξ: configuration not given here. dPhe(4-guanidino) = N=C(N)Nc1ccc(C[C@@H](N)C(=O)O)cc1; Phe(4-guanidino) = N=C(N)Nc1ccc(C[C@H](N)C(=O)O)cc1; ξLys(N3) = [N-]=[N+]=NCCCCC(N)C(=O)O; Aha = [N-]=[N+]=NCC[C@H](N)C(=O)O; Pra = C#CC[C@H](N)C(=O)O

Tests used:
[1] = molecular target: T1, KRAS (G12D) (Homo sapiens, UniProt P01116, G12D); assay: ELISA binding of cyclic peptides to KRAS (G12D); conditions: absorbance units; for ELISA binding compared with LRGGnf: FIG. 3 and FIG. 4, 5 μM and 20 μM peptide, KRAS (WT) and KRAS (G12D)
Method: FIG. 2 is a graph of a single point ELISA assay comparing the binding (measured in absorbance units, A.U.) of cyclic peptide 7b10 (LRGDGnf; SEQ ID NO:5) and LRGGnf (SEQ ID NO:4) to KRAS (WT) and KRAS (G12D).
(§1) FIG. 3 is a graph of ELISA assays of four peptides (LRGGnf (SEQ ID NO:4), LRG (F—Br) (SEQ ID NO:6), LRGGnf-Az3 (SEQ ID NO:4), and LRGGnf-Az2 (SEQ ID NO:4)) at two different concentrations (5 μM and 20 μM) to KRAS (WT) and KRAS (G12D) comparing the binding (measured in absorbance units, A.U.). […] All of the cyclic peptides show preferential binding to KRAS (G12D) over KRAS (WT).
as §1, with “4” for “3”, “(QDNY” for “(LRGGnf”, “NO:14), QNGnfY” for “NO:4), LRG (F—Br)”, “NO:24), QQGnfGnf” for “NO:6), LRGGnf-Az3”, “NO:3),” for “NO:4),”, “LRGGnf” for “LRGGnf-Az2”

[2] = molecular target: KRAS (WT) (Homo sapiens, UniProt P01116); assay: EC50 for KRAS (WT); assay type: binding
[3] = molecular target: T1, KRAS (G12D); assay: EC50 for KRAS (G12D); assay type: binding

ELISA binding compared with LRGGnf [1] | Compound | also measured
noticeable worse | LRG (F—Br): cyclic peptide with variable region LRGF-Br (SEQ ID NO:6), F—Br is bromophenylalanine (LRG[bromophenylalanine]; also: cyclic peptide, only variable region given) | –
– | N=C(N)Nc1ccc(C[C@H]2NC(=O)[C@@H](Cc3ccc(NC(=N)N)cc3)NC(=O)[C@@H](CCC(N)=O)NC(=O)[C@@H](CCC(N)=O)NC(=O)[C@@H](N)Cc3cn(nn3)CCCCC(C(N)=O)NC2=O)cc1 (stereo partly shown) [QQGnfGnf] (H-[Pra][dQ][dQ][dPhe(4-guanidino)][dPhe(4-guanidino)][ξLys(N3)]-NH2; triazole 1-6) | EC50 [2]: 3 µM; EC50 [3]: 1 µM
more so | QDNY: cyclic peptide with variable region QDNY (SEQ ID NO:14) (also: cyclic peptide, variable region only, ring closure not given here) | –
comparable to LRGGnf | LRGGnf-Az3: cyclic peptide LRGGnf (SEQ ID NO:4) with azidoornithine (OrnN3 or Az3) (LRG[Phe(4-guanidino)]; also: cyclic peptide, only variable region given, azidoornithine (Az3) modification, position not given here) | –
– | LRGGnf: cyclic peptide with variable region LRGGnf (SEQ ID NO:4) (LRG[Phe(4-guanidino)]; also: cyclic peptide, only variable region given) | binding compared to LRGDGnf, single point ELISA ([1]; FIG. 2, single point ELISA to KRAS (WT) and KRAS (G12D)): 5 times
slightly better | CC(C)C[C@@H]1NC(=O)[C@@H](N)Cc2cn(nn2)CC[C@@H](C(N)=O)NC(=O)[C@H](Cc2ccc(NC(=N)N)cc2)NC(=O)CNC(=O)[C@H](CCCNC(=N)N)NC1=O [LRGGnf-Az2] (H-[Pra]LRG[Phe(4-guanidino)][Aha]-NH2; triazole 1-6; N-terminus and C-terminus assumed) | –
